{"source": "patent US20110009283A1", "binders": {"B1": {"name": "sarafotoxin S6b phage (peptide)", "chain": "CSCKDMTDKECLYFCHQDVIW", "modifications": "cysteine pairing not given here; also: displayed on phage via linker and coat protein"}}, "key": {"[1]": {"target": "Kv1.2 K+ channel (species not stated)", "experiment": "cell-based or functional assay"}, "[2]": {"target": "BK channel (species not stated)", "experiment": "cell-based or functional assay"}, "[3]": {"target": "Kv1.1 K+ channel (species not stated)", "experiment": "cell-based or functional assay"}, "[4]": {"target": "T1, Kv1.3 K+ channel, wild-type, expressed in cells (species not stated) (Homo sapiens (Human)), P22001", "T1 sequence (P22001 whole entry)": "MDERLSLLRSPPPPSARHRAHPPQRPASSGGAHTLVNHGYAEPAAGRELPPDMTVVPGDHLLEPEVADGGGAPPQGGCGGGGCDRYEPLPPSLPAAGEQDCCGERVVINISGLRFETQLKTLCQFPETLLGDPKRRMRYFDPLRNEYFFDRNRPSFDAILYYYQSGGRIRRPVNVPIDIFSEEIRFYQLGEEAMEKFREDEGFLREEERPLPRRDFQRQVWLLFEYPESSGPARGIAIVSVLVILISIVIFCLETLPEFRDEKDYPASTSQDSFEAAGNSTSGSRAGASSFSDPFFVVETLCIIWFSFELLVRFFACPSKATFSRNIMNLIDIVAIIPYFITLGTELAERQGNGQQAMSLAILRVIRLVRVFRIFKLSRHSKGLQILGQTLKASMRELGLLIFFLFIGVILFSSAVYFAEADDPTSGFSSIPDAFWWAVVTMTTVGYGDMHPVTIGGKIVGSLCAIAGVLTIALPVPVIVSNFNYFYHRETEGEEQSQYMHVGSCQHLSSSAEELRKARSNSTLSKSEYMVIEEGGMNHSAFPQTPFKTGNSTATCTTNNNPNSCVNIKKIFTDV", "experiment": "cell-based or functional assay"}, "[5]": {"target": "Homo Kv1.3 (Homo), P22001", "sequence (P22001 whole entry)": "as above"}, "[6]": {"target": "T2, Rattus Kv1.2 (Rattus), P63142", "T2 chain": "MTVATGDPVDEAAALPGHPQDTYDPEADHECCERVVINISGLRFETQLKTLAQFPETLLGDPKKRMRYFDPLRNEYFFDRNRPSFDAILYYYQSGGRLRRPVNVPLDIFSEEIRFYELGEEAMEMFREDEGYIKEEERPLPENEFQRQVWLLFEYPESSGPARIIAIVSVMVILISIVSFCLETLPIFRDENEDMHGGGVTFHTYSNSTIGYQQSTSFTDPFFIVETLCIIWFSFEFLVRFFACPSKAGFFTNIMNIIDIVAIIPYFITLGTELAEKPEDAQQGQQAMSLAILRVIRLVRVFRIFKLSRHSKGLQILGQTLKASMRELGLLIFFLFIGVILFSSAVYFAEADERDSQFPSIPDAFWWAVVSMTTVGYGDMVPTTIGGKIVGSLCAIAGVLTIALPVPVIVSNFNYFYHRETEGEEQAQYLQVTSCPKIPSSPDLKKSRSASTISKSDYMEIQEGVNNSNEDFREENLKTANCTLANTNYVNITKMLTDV"}, "[7]": {"target": "T3, Mus BK (big conductance calcium-activated K channel) (Mus), Q08460", "T3 sequence (Q08460 whole entry)": "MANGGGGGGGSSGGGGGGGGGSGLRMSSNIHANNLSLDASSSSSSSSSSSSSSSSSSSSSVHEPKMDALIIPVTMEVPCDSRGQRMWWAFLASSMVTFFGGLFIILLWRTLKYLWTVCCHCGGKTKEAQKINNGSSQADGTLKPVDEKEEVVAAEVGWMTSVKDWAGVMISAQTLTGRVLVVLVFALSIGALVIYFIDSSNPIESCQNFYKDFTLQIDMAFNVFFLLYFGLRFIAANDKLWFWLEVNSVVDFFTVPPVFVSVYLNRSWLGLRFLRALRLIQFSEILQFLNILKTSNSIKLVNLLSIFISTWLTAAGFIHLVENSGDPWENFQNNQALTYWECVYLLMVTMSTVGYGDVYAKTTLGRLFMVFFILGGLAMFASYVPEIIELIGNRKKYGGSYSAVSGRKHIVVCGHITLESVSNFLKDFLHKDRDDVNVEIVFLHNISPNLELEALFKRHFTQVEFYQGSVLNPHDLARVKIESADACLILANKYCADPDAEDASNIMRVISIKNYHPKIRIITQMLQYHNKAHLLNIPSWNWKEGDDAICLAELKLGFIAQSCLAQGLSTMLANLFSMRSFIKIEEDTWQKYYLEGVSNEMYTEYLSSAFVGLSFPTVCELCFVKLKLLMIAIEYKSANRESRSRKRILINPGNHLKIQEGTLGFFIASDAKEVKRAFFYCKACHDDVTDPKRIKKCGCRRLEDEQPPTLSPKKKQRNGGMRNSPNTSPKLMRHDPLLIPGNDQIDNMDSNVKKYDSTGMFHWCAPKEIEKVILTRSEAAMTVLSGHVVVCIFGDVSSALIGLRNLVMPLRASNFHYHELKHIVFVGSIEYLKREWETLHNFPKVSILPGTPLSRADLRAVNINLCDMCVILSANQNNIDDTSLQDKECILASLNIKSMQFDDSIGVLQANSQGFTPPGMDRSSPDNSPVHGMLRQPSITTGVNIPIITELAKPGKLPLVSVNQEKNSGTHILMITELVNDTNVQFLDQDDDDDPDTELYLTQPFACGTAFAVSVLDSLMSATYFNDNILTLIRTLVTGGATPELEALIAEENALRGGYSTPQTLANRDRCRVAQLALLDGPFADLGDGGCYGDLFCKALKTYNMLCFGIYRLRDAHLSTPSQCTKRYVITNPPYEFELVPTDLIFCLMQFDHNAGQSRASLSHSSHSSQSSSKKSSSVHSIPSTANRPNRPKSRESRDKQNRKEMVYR"}, "[8]": {"target": "T4, Rattus Kv1.1 (Rattus), P10499", "T4 chain": "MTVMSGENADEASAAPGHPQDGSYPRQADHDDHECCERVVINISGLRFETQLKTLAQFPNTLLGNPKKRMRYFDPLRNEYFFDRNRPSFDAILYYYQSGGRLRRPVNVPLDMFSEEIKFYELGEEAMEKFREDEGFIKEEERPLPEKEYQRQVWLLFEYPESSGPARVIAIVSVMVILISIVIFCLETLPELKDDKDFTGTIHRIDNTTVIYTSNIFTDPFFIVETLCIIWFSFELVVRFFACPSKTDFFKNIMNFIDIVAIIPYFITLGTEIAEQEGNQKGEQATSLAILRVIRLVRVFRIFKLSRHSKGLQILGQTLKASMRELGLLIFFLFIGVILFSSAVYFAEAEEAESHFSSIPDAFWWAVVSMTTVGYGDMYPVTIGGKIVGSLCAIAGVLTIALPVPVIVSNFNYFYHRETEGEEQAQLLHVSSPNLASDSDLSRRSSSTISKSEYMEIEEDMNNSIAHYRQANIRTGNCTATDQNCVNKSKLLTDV"}, "[9]": {"target": "KcsA-Kv1.3 (KcsA carrying a segment of the Kv1.3 pore loop)"}, "[10]": {"target": "antiserum to sarafotoxin S6b"}, "KcsA, wild-type, P0A334": {"target": "T5, KcsA, wild-type, P0A334", "T5 chain": "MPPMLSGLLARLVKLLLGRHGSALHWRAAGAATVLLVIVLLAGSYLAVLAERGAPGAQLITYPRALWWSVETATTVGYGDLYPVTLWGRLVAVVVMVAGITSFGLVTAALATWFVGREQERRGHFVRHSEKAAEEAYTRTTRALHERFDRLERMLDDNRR", "experiment": "phage panning of Shk / Camel VHH mixture on KcsA (n = 17-20)"}, "[11]": {"target": "T1, Kv1.3 K+ channel, wild-type, expressed …", "experiment": "panning of a 2:2:96 phage mixture on HEK cells expressing Kv1.3"}, "[12]": {"target": "T1, Kv1.3 K+ channel, wild-type, expressed …"}, "[13]": {"target": "T1, Kv1.3 K+ channel, wild-type, expressed …", "experiment": "one round of phage panning on mammalian cells expressing Kv1.3"}, "[14]": {"target": "T1, Kv1.3 K+ channel, wild-type, expressed …", "remark": "listed apart in the source"}, "[15]": {"target": "T1, Kv1.3 K+ channel, wild-type, expressed …", "experiment": "phage panning on HEK cells transfected with Kv1.3 vs vector; 5x10^11 phagemids"}, "[16]": {"target": "antiserum to sarafotoxin S6b", "remark": "listed apart in the source"}, "[17]": {"target": "T1, Kv1.3 K+ channel, wild-type, expressed …", "experiment": "phage panning on COS cells transfected with Kv1.3 vs vector; 5x10^11 phagemids"}, "[18]": {"target": "Homo Kv1.3 (Homo), P22001", "experiment": "two-electrode voltage clamp, kinetics of block in Xenopus oocytes"}, "[19]": {"target": "T2, Rattus Kv1.2 (Rattus), P63142", "experiment": "two-electrode voltage clamp, kinetics of block in Xenopus oocytes"}, "[20]": {"target": "T3, Mus BK (big conductance …)", "experiment": "two-electrode voltage clamp, kinetics of block in Xenopus oocytes"}, "[21]": {"target": "T4, Rattus Kv1.1 (Rattus), P10499", "experiment": "two-electrode voltage clamp, kinetics of block in Xenopus oocytes"}, "[22]": {"target": "T1, Kv1.3 K+ channel, wild-type, expressed …", "remark": "listed apart in the source"}}, "note": "“And” between values parts separate entries of the source, which are not always exact repeats. Equal entries are not always repeated. Where two headings read alike, the source gives them in different places. Where no end group is shown, it is not given here.", "data": [{"binder": "ZFTNVSCTTSKECWSVCQRLHNTSRGKCMNKKCRCYS (modifications not checked)", "note": "[Charybdotoxin (CTX)]", "values": [{"measurement": "approximate IC50 (nM) of channel block", "setting": "[1]", "result": 5.6, "unit": "nM"}, {"measurement": "approximate IC50 (nM) of channel block", "setting": "[2]", "result": 3, "unit": "nM"}, {"measurement": "approximate IC50 (nM) of channel block", "setting": "[3]", "result": 1500, "unit": "nM"}, {"measurement": "approximate IC50 (nM) of channel block", "setting": "[4]", "result": 2.5, "unit": "nM"}, {"measurement": "Ki", "setting": "[5]", "result": 0.9, "unit": "nM"}, {"measurement": "Ki", "setting": "[6]", "result": 9, "unit": "nM"}, {"measurement": "Ki", "setting": "[7]", "result": 5, "unit": "nM"}, {"measurement": "Ki", "setting": "[8]", "result": "> 1000", "unit": "nM"}]}, {"binder": "B1", "values": [{"measurement": "Output (% Ligands)", "setting": "[9]", "result": 0, "unit": "%"}, {"measurement": "Output (% Ligands)", "setting": "[10]", "result": 100, "unit": "%"}]}, {"binder": "RSCIDTIPKSRCTAFQCKHSMKYRLSFCRKTCGTC (modifications not checked)", "note": "[Shk phage (sea anemone K+ channel toxin ShK on phage)]", "values": [{"measurement": "% phages, OUTPUT", "setting": "KcsA, wild-type, P0A334", "result": 0, "unit": "%"}]}, {"binder": "GVEINVKCSGSPQCLKPCKDAGMRFGKCMNRKCHCTPK (modifications not checked)", "note": "[Kaliotoxin-1 phage (KTX-phage)]", "values": [{"measurement": "% of phages after the 2nd panning", "setting": "[11]", "result": 40, "unit": "%"}, {"measurement": "block of Kv1.3 currents, whole-cell patch-clamp in HEK293 cells, 1 nM KTX-phage", "setting": "[4]", "result": 35, "unit": "%"}, {"measurement": "time to half reversal of inhibition on washing", "setting": "[4]", "result": 20, "unit": "min"}, {"measurement": "output KTX (%)", "setting": "[12]", "result": "22% and 30% and 26%"}, {"measurement": "Fold Enrichment", "setting": "[13]", "result": "4.3 fold and 5.2 fold"}, {"measurement": "% of recovered phage, 2nd round", "setting": "[14]", "result": 0, "unit": "%"}, {"measurement": "% of recovered phage, 3rd round", "setting": "[14]", "result": 58, "unit": "%"}, {"measurement": "fold enrichment (Kv1.3-transfected vs vector cells)", "setting": "[15]", "result": 20, "unit": "fold"}, {"measurement": "Output (% Ligands)", "setting": "[16]", "result": 0, "unit": "%"}, {"measurement": "fold enrichment (Kv1.3-transfected vs vector cells)", "setting": "[17]", "result": 10, "unit": "fold"}]}, {"binder": "GVEINVKCSGSPQCLKPCKDAGMRFGKCMNRKCHCTPK (modifications not checked)", "note": "[Kaliotoxin-1 (KTX)]", "values": [{"measurement": "approximate IC50 (nM) of channel block", "setting": "[1]", "result": 1.4, "unit": "nM"}, {"measurement": "approximate IC50 (nM) of channel block", "setting": "[2]", "result": 5, "unit": "nM"}, {"measurement": "approximate IC50 (nM) of channel block", "setting": "[3]", "result": 0.1, "unit": "nM"}, {"measurement": "approximate IC50 (nM) of channel block", "setting": "[4]", "result": 0.5, "unit": "nM"}, {"measurement": "Ki", "setting": "[5]", "result": 0.008, "unit": "nM"}, {"measurement": "Ki", "setting": "[6]", "result": 20, "unit": "nM"}, {"measurement": "Ki", "setting": "[7]", "result": 1.6, "unit": "nM"}, {"measurement": "Ki", "setting": "[8]", "result": 1.1, "unit": "nM"}, {"measurement": "koff", "setting": "[18]", "result": 0.007, "unit": "s⁻¹"}, {"measurement": "kon", "setting": "[18]", "result": "8e+08", "unit": "M⁻¹ s⁻¹"}, {"measurement": "koff", "setting": "[19]", "result": 0.21, "unit": "s⁻¹"}, {"measurement": "kon", "setting": "[19]", "result": "1.3e+07", "unit": "M⁻¹ s⁻¹"}, {"measurement": "koff", "setting": "[20]", "result": 0.0211, "unit": "s⁻¹"}, {"measurement": "kon", "setting": "[20]", "result": 21000, "unit": "M⁻¹ s⁻¹"}, {"measurement": "koff", "setting": "[21]", "result": 0.009, "unit": "s⁻¹"}, {"measurement": "kon", "setting": "[21]", "result": "3e+07", "unit": "M⁻¹ s⁻¹"}]}, {"binder": "GVEINVKCSGSPQCLKPCKDAGMDFGDCMNDKCHCTPK (modifications not checked)", "note": "[DDD-KTX-phage (inactive kaliotoxin-1, R24D, K27D, R31D, on phage)]", "values": [{"measurement": "% of recovered phage, 2nd round", "setting": "[14]", "result": 100, "unit": "%"}, {"measurement": "% of recovered phage, 3rd round", "setting": "[14]", "result": 42, "unit": "%"}, {"measurement": "# of genotype, Test", "setting": "[22]", "result": 2, "unit": "colonies"}, {"measurement": "% of genotype, Test", "setting": "[22]", "result": 10, "unit": "%"}]}, {"binder": "GVPINVSCTGSPQCIKPCKDAGMRFGKCMNRKCHCTPK (modifications not checked)", "note": "[Agitoxin-2 (AgTx2)]", "values": [{"measurement": "approximate IC50 (nM) of channel block", "setting": "[1]", "result": 26.8, "unit": "nM"}, {"measurement": "approximate IC50 (nM) of channel block", "setting": "[2]", "result": 1150, "unit": "nM"}, {"measurement": "approximate IC50 (nM) of channel block", "setting": "[3]", "result": 0.04, "unit": "nM"}, {"measurement": "approximate IC50 (nM) of channel block", "setting": "[4]", "result": 0.004, "unit": "nM"}, {"measurement": "Ki", "setting": "[5]", "result": 0.041, "unit": "nM"}, {"measurement": "Ki", "setting": "[6]", "result": 3.4, "unit": "nM"}, {"measurement": "Ki", "setting": "[8]", "result": 0.17, "unit": "nM"}]}]}
